Residues, ends and D or L forms follow the SMILES beside them.
Tests used:
[1] = target: T1, HLA-DRB1*15:01 (Homo sapiens, UniProt P01903+P01911); assay: Peptide/HLA-DR binding, competitive ELISA; conditions: for Relative binding affinity of peptide to HLA-DR molecules DRB1*1501: ratio IC50 of peptide / IC50 of reference peptide A3 152–166, lower = higher affinity, ratio 20 or less high, 20–100 moderate, three independent experiments
T1 construct: HLA-DR heterodimers were purified from homozygous Epstein–Barr virus B-lymphoblastoid cell lines; host or cells: homozygous EBV B-lymphoblastoid cell line
Method: (§1) HLA-DR heterodimers were purified from homozygous Epstein–Barr virus B-lymphoblastoid cell lines (HPA Culture Collections, Salisbury, UK) by affinity chromatography with the monomorphic HLA-DRα monoclonal antibody, L243.[29],[30] Binding of the SseB peptide panel to the HLA-DR molecules HLA-DRB1*01:01, 03:01, 04:01, 07:01, 09:01, 11:01, 12:02, 15:01, 15:02 was assessed by competitive ELISA, as previously described, using an automated workstation.[29],[30] We evaluated the peptide concentration able to prevent binding of 50% of the labelled peptide (IC50). Data were expressed as relative affinity: ratio of the IC50 of the peptide to the IC50 of the reference peptide, which is a high binder to the HLA class II molecule. Unlabelled forms of the biotinylated peptides were used as reference peptides.

[2] = target: T2, HLA-DRB1*03:01 (Homo sapiens, UniProt P01903+P01911, A100K/A102G/A103R/A169T/F55Y/I96L/K41T/L162R/M171V/P40S/Q125H/Q178H/Q39Y/R42S/S66N/T106N/T262R/W38E/Y61H); assay: Peptide/HLA-DR binding, competitive ELISA; conditions: ratio IC50 of peptide / IC50 of reference peptide MT2-16, lower = higher affinity, ratio 20 or less high, 20–100 moderate, three independent experiments
T2 construct: HLA-DR heterodimers were purified from homozygous Epstein–Barr virus B-lymphoblastoid cell lines; host or cells: homozygous EBV B-lymphoblastoid cell line
Method: as §1

[3] = target: T3, HLA-DRB1*09:01 (Homo sapiens, UniProt P01903+P01911, A100R/A103E/D57H/D86V/F55Y/F60I/F76Y/I96F/K127E/L162R/M171V/P40D/Q125H/Q99R/R33Q/R42F/S133A/S66N/T210M/V115G/W38K/Y107V/Y59G/Y89S); assay: Peptide/HLA-DR binding, competitive ELISA; conditions: for Relative binding affinity of peptide to HLA-DR molecules DRB1*0901: ratio IC50 of peptide / IC50 of reference peptide CTP 427–441, lower = higher affinity, ratio 20 or less high, 20–100 moderate, three independent experiments
T3 construct: HLA-DR heterodimers were purified from homozygous Epstein–Barr virus B-lymphoblastoid cell lines; host or cells: homozygous EBV B-lymphoblastoid cell line
Method: as §1

[4] = target: HLA-DRB1*12:02 (Homo sapiens, UniProt P01903+P01911, A100R/A169T/D57E/D86V/F55L/H45Y/I96F/K41T/L162R/M171V/P40S/Q125H/Q178H/Q39Y/Q99D/R42G/S66L/T262R/V114A/V67L/W38E/Y59H/Y61H/Y89S); assay: Peptide/HLA-DR binding, competitive ELISA; conditions: for Relative binding affinity of peptide to HLA-DR molecules DRB1*1202: ratio IC50 of peptide / IC50 of reference peptide TFR 141–155, lower = higher affinity, ratio 20 or less high, 20–100 moderate, three independent experiments
Method: as §1

[5] = target: T4, HLA-DRB1*15:02 (Homo sapiens, UniProt P01903+P01911, V115G); assay: Peptide/HLA-DR binding, competitive ELISA; conditions: for Relative binding affinity of peptide to HLA-DR molecules DRB1*1502: ratio IC50 of peptide / IC50 of reference peptide TFR 607–620, lower = higher affinity, ratio 20 or less high, 20–100 moderate, three independent experiments
T4 construct: HLA-DR heterodimers were purified from homozygous Epstein–Barr virus B-lymphoblastoid cell lines; host or cells: homozygous EBV B-lymphoblastoid cell line
Method: as §1

[6] = target: HLA-DRB1*07:01 (Homo sapiens, UniProt P01903+P01911, A100R/A102G/A103Q/D57E/D86V/E43K/F76Y/K127E/L162R/M171V/P40G/Q125H/Q99D/R33Q/R42Y/R54Q/S133A/S66F/T210M/V115G/Y107V/Y59L/Y89S); conditions: competitive ELISA; ratio IC50 of peptide / IC50 of reference peptide HA 306–318; lower = higher affinity; ratio 20 or less high, 20–100 moderate; three independent experiments
[7] = target: HLA-DRB1*04:01 (Homo sapiens, UniProt P01903+P01911, A100K/A169T/F76Y/I96L/K127E/L162R/M171V/N62H/P40V/Q125Y/R42H/S133A/S149N/S66Y/V115G/V209L/W38E); conditions: competitive ELISA; ratio IC50 of peptide / IC50 of reference peptide HA 306–318; lower = higher affinity; ratio 20 or less high, 20–100 moderate; three independent experiments
[8] = target: HLA-DRB1*01:01 (Homo sapiens, UniProt P01903+P01911, A100R/D57E/F55L/F60I/F76Y/I96L/L162R/M171V/P40L/Q125E/R42F/V115G/Y59C); conditions: competitive ELISA; ratio IC50 of peptide / IC50 of reference peptide HA 306–318; lower = higher affinity; ratio 20 or less high, 20–100 moderate; three independent experiments
[9] = target: HLA-DRB1*11:01 (Homo sapiens, UniProt P01903+P01911, A100R/A169T/A87E/I96F/K41T/L162R/M171V/P40S/Q125H/Q178H/Q39Y/Q99D/R42S/S66Y/T262R/V115G/W38E); conditions: competitive ELISA; ratio IC50 of peptide / IC50 of reference peptide HA 306–318; lower = higher affinity; ratio 20 or less high, 20–100 moderate; three independent experiments

Compound | Relative binding affinity of peptide to HLA-DR molecules DRB1*1501 [1] | Relative binding affinity of peptide to HLA-DR molecules DRB1*0301 [2] | Relative binding affinity of peptide to HLA-DR molecules DRB1*0901 [3] | Relative binding affinity of peptide to HLA-DR molecules DRB1*1202 [4] | Relative binding affinity of peptide to HLA-DR molecules DRB1*1502 [5] | Relative binding affinity of peptide to HLA-DR molecules DRB1*0701 [6] | Relative binding affinity of peptide to HLA-DR molecules DRB1*0401 [7] | Relative binding affinity of peptide to HLA-DR molecules DRB1*0101 [8] | Relative binding affinity of peptide to HLA-DR molecules DRB1*1101 [9] | IC50 ([1]; DRB1*15:01, unlabelled form of the biotinylated peptide, read-out: IC50 of reference peptide) [nM] | IC50 ([3]; DRB1*0901, unlabelled form of the biotinylated peptide, read-out: IC50 of reference peptide) [nM] | IC50 ([4]; DRB1*1202, unlabelled form of the biotinylated peptide, read-out: IC50 of reference peptide) [nM] | IC50 ([5]; DRB1*15:02, unlabelled form of the biotinylated peptide, read-out: IC50 of reference peptide) [nM]
3: SseB overlapping library peptide, residues 21–40 (GVSNADTGSQDDLSQQNPFA) [Peptide 3] | > 270 | > 119 | > 689 | > 136 | > 3 333 | > 336 | > 145 | > 4149 | – | – | – | – | –
4: SseB overlapping library peptide, residues 31–50 (DDLSQQNPFAEGYGVLLILL) [Peptide 4] | 10 | > 119 | 28 | > 136 | 55 | 6 | > 145 | 22 | – | – | – | – | –
5: SseB overlapping library peptide, residues 41–60 (EGYGVLLILLMVIQAIANNK) [Peptide 5] | > 270 | > 119 | > 689 | > 136 | > 3 333 | > 336 | > 145 | > 4149 | > 278 | – | – | – | –
6: SseB overlapping library peptide, residues 51–70 (MVIQAIANNKFIEVQKNAER) [Peptide 6] | 1 | > 119 | > 689 | 2 | 577 | 2 | 6 | 235 | 8 | – | – | – | –
7: SseB overlapping library peptide, residues 61–80 (FIEVQKNAERARNTQEKSNE) [Peptide 7] | 211 | 89 | > 689 | > 136 | > 3 333 | > 336 | 109 | – | > 278 | – | – | – | –
8: SseB overlapping library peptide, residues 71–90 (ARNTQEKSNEMDEVIAKAAK) [Peptide 8] | > 270 | > 119 | > 689 | > 136 | > 3 333 | > 336 | > 145 | > 4149 | > 278 | – | – | – | –
CC(C)C[C@H](NC(=O)[C@H](Cc1ccc(O)cc1)NC(=O)[C@H](C)NC(=O)[C@H](CCCNC(=N)N)NC(=O)[C@H](CC(C)C)NC(=O)[C@H](CCC(N)=O)NC(=O)[C@H](CCC(=O)O)NC(=O)[C@H](C)NC(=O)[C@@H](N)CCC(=O)O)C(=O)N[C@@H](CC(=O)O)C(=O)NCC(=O)N[C@H](C(=O)NCC(=O)N[C@H](C(=O)N[C@@H](CCC(=O)O)C(=O)O)C(C)C)[C@@H](C)O [A3 152–166, reference compound] | – | – | – | – | – | – | – | – | – | 37 | – | – | –
CC[C@H](C)[C@H](NC(=O)[C@H](CCCNC(=N)N)NC(=O)[C@H](CO)NC(=O)[C@@H](NC(=O)[C@H](C)NC(=O)[C@@H]1CCCN1C(=O)[C@H](CC(N)=O)NC(=O)[C@H](Cc1ccc(O)cc1)NC(=O)[C@H](Cc1ccccc1)NC(=O)CNC(=O)[C@H](Cc1c[nH]cn1)NC(=O)[C@@H](N)C(C)C)C(C)C)C(=O)N[C@H](C(=O)N[C@@H](CCC(=O)O)C(=O)N[C@@H](C)C(=O)O)C(C)C [CTP 427–441, reference compound] (H-VHGFYNPAVSRIVEA-OH) | – | – | – | – | – | – | – | – | – | – | 15 | – | –
CC[C@H](C)[C@H](NC(=O)[C@@H](NC(=O)CNC(=O)[C@@H](N)[C@@H](C)O)[C@@H](C)O)C(=O)N[C@@H](CCCCN)C(=O)N[C@@H](CC(C)C)C(=O)N[C@@H](CC(C)C)C(=O)N[C@@H](CC(N)=O)C(=O)N[C@@H](CCC(=O)O)C(=O)N[C@@H](CC(N)=O)C(=O)N[C@@H](CO)C(=O)N[C@@H](Cc1ccc(O)cc1)C(=O)N[C@H](C(=O)N1CCC[C@H]1C(=O)N[C@@H](CCCNC(=N)N)C(=O)O)C(C)C [TFR 141–155, reference compound] (H-TGTIKLLNENSYVPR-OH) | – | – | – | – | – | – | – | – | – | – | – | 73 | –
CC(C)C[C@H](NC(=O)[C@H](CC(C)C)NC(=O)[C@H](CCC(N)=O)NC(=O)[C@H](CO)NC(=O)[C@H](CC(N)=O)NC(=O)[C@H](Cc1ccc(O)cc1)NC(=O)[C@H](CCCNC(=N)N)NC(=O)[C@H](CCC(=O)O)NC(=O)[C@H](Cc1ccc(O)cc1)NC(=O)[C@H](CC(=O)O)NC(=O)[C@H](CC(C)C)NC(=O)[C@H](CC(N)=O)NC(=O)[C@@H](N)CC(C)C)C(=O)N[C@@H](CO)C(=O)O [TFR 607–620, reference compound] (H-LNLDYERYNSQLLS-OH) | – | – | – | – | – | – | – | – | – | – | – | – | 3

Source: publication PMC4212957, “The serodominant secreted effector protein of Salmonella, SseB, is a strong CD4 antigen containing an immunodominant epitope presented by diverse HLA class II alleles” (Immunology, 2014)
